According to IntAct's records for PubMed 28712572:

Biological target: gbrap_human GABARAP (UniProt O95166)
Sequence (O95166 whole entry): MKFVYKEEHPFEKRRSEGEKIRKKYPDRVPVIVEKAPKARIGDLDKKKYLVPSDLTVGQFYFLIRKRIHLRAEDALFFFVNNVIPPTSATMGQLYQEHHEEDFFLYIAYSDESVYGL

Substance | effect of a mutation on the interaction
Pericentriolar material 1 protein (Homo sapiens), Q15154 D1962A;F1963A;V1966A | decreasing interaction strength

Biological target: gbrap_human GABARAP (UniProt O95166)
Remark: another data set of the same source

Substance | effect of a mutation on the interaction
Pericentriolar material 1 protein (Homo sapiens), Q15154 D1962A;F1963A;V1966A | with no effect

Biological target: gbrap_human GABARAP (UniProt O95166)
Remark: another data set of the same source

Substance | effect of a mutation on the interaction
Pericentriolar material 1 protein (Homo sapiens), Q15154 S1958W | with no effect
Pericentriolar material 1 protein (Homo sapiens), Q15154 S1958Y | with no effect
Pericentriolar material 1 protein (Homo sapiens), Q15154 T1974A | with no effect
Pericentriolar material 1 protein (Homo sapiens), Q15154 T1974C | with no effect
Pericentriolar material 1 protein (Homo sapiens), Q15154 T1974D | with no effect
Pericentriolar material 1 protein (Homo sapiens), Q15154 T1974E | with no effect
Pericentriolar material 1 protein (Homo sapiens), Q15154 T1974F | with no effect
Pericentriolar material 1 protein (Homo sapiens), Q15154 T1974G | with no effect
Pericentriolar material 1 protein (Homo sapiens), Q15154 T1974H | with no effect
Pericentriolar material 1 protein (Homo sapiens), Q15154 T1974I | with no effect
Pericentriolar material 1 protein (Homo sapiens), Q15154 T1974K | with no effect
Pericentriolar material 1 protein (Homo sapiens), Q15154 T1974L | with no effect
Pericentriolar material 1 protein (Homo sapiens), Q15154 T1974M | with no effect
Pericentriolar material 1 protein (Homo sapiens), Q15154 T1974N | with no effect
Pericentriolar material 1 protein (Homo sapiens), Q15154 T1974P | with no effect
Pericentriolar material 1 protein (Homo sapiens), Q15154 T1974Q | with no effect
Pericentriolar material 1 protein (Homo sapiens), Q15154 T1974R | with no effect
Pericentriolar material 1 protein (Homo sapiens), Q15154 T1974S | with no effect
Pericentriolar material 1 protein (Homo sapiens), Q15154 T1974V | with no effect
Pericentriolar material 1 protein (Homo sapiens), Q15154 T1974W | with no effect

Substance | effect of a mutation on the interaction
Pericentriolar material 1 protein (Homo sapiens), Q15154 T1974Y | with no effect
Pericentriolar material 1 protein (Homo sapiens), Q15154 V1964A | disrupting interaction strength
Pericentriolar material 1 protein (Homo sapiens), Q15154 V1964C | with no effect
Pericentriolar material 1 protein (Homo sapiens), Q15154 V1964D | decreasing interaction strength
Pericentriolar material 1 protein (Homo sapiens), Q15154 V1964E | with no effect
Pericentriolar material 1 protein (Homo sapiens), Q15154 V1964F | with no effect
Pericentriolar material 1 protein (Homo sapiens), Q15154 V1964G | disrupting interaction strength
Pericentriolar material 1 protein (Homo sapiens), Q15154 V1964H | disrupting interaction strength
Pericentriolar material 1 protein (Homo sapiens), Q15154 V1964I | with no effect
Pericentriolar material 1 protein (Homo sapiens), Q15154 V1964K | disrupting interaction strength
Pericentriolar material 1 protein (Homo sapiens), Q15154 V1964L | decreasing interaction strength
Pericentriolar material 1 protein (Homo sapiens), Q15154 V1964M | disrupting interaction strength
Pericentriolar material 1 protein (Homo sapiens), Q15154 V1964N | disrupting interaction strength
Pericentriolar material 1 protein (Homo sapiens), Q15154 V1964P | disrupting interaction strength
Pericentriolar material 1 protein (Homo sapiens), Q15154 V1964Q | disrupting interaction strength
Pericentriolar material 1 protein (Homo sapiens), Q15154 V1964R | disrupting interaction strength
Pericentriolar material 1 protein (Homo sapiens), Q15154 V1964S | disrupting interaction strength
Pericentriolar material 1 protein (Homo sapiens), Q15154 V1964T | disrupting interaction strength
Pericentriolar material 1 protein (Homo sapiens), Q15154 V1964W | disrupting interaction strength
Pericentriolar material 1 protein (Homo sapiens), Q15154 V1964Y | decreasing interaction strength

Substance | effect of a mutation on the interaction
Pericentriolar material 1 protein (Homo sapiens), Q15154 V1966A | disrupting interaction strength
Pericentriolar material 1 protein (Homo sapiens), Q15154 V1966C | disrupting interaction strength
Pericentriolar material 1 protein (Homo sapiens), Q15154 V1966D | disrupting interaction strength
Pericentriolar material 1 protein (Homo sapiens), Q15154 V1966E | disrupting interaction strength
Pericentriolar material 1 protein (Homo sapiens), Q15154 V1966F | with no effect
Pericentriolar material 1 protein (Homo sapiens), Q15154 V1966G | disrupting interaction strength
Pericentriolar material 1 protein (Homo sapiens), Q15154 V1966H | disrupting interaction strength
Pericentriolar material 1 protein (Homo sapiens), Q15154 V1966I | with no effect
Pericentriolar material 1 protein (Homo sapiens), Q15154 V1966K | disrupting interaction strength
Pericentriolar material 1 protein (Homo sapiens), Q15154 V1966L | with no effect
Pericentriolar material 1 protein (Homo sapiens), Q15154 V1966M | disrupting interaction strength
Pericentriolar material 1 protein (Homo sapiens), Q15154 V1966N | disrupting interaction strength
Pericentriolar material 1 protein (Homo sapiens), Q15154 V1966P | disrupting interaction strength
Pericentriolar material 1 protein (Homo sapiens), Q15154 V1966Q | disrupting interaction strength
Pericentriolar material 1 protein (Homo sapiens), Q15154 V1966R | disrupting interaction strength
Pericentriolar material 1 protein (Homo sapiens), Q15154 V1966S | disrupting interaction strength
Pericentriolar material 1 protein (Homo sapiens), Q15154 V1966T | disrupting interaction strength
Pericentriolar material 1 protein (Homo sapiens), Q15154 V1966W | disrupting interaction strength
Pericentriolar material 1 protein (Homo sapiens), Q15154 V1966Y | decreasing interaction strength
